{"source": "paper doi:10.1101/329482", "about": "(bioRxiv, 2018)", "target": "GP1 receptor-binding domain of Lujo virus (LUJVGP1), residues 74-199 (Lujo virus (LUJV), UniProt C5ILC1 74-199)", "assay": "crystal structure"}
{"binder": "first CUB domain of neuropilin-2 (NRP2), binding site fragment (domain or fragment) PCGGRLNSKDAGYITSPGYPQDYPSHQNCEWIVYAPEPNQKIVLNFNPHFEIEKHDCKYDFIEIRDGDSESADLLGKHCGNIAPPTIISSGSMLYIKFTSDYARQGAGFSLRYEIFKTGS", "values": [{"measurement": "binding result", "result": "binds"}]}
